Bounds are passed on as bounds.

Assay [1] addresses T1, human CTLA4-Fc (Fitzgerald #30R-CD152) (human, UniProt P16410 38-152).
T1 construct: Bought reagent; also called biotinylated-CTLA4; human CTLA-4 (Fitzgerald); not shown: Fc part of the bought fusion
As to the kind of experiment: binding ELISA, CTLA4-Fc coated, sample titrated, anti-human IgG Fc-HRP, chemiluminescence. How it is done: The plates were washed (Wash buffer: PBS+0.05% Tween 20 (PBST) Medicago #09-9410-100) and then blocked in PBST+3% BSA (Merck, #1.12018.0100). […] The samples were incubated for 1 h at room temperature and then washed. Detection antibody, goat-anti-human IgG Fcγ-HRP (Jackson, #109-035-098) was added and the plates were subsequently developed using SuperSignal Pico Chemiluminescent substrate (Thermo #37069) and detected with Envision reader (Perkin Elmer).

The next assay deals with T2, CD40-Fc (R&D #1493-CD) (human, UniProt P25942 21-193).
T2 construct: Bought reagent immobilised on the Biacore chip; also called human CD40; not shown: Fc part of the bought fusion
T2 sequence (P25942 21-193 limits assumed): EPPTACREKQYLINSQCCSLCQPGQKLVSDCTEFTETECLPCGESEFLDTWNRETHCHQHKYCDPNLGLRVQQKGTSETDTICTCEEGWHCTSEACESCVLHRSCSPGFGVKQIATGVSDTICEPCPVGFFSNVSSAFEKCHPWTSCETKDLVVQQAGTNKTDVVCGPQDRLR
In words: SPR (Biacore 3000), CD40-Fc immobilised, control antibody injected. As to the method:
CD40-Fc (R&D #1493-CD) was immobilized to the BIAcore sensorship, CMS, using conventional amine coupling. 0.5 uM Bispecific construct (957/530) was injected over immobilized CD40 for 3 minutes and the dissociation was followed for 3 minutes. 2.17 uM CTLA4-Fc (Orencia, Bristol-Mayers Squibb) was injected over the CD40-Bispecific complex for 3 minutes and the dissociation phase was followed for 3 minutes. The chip was finally regenerated using 10 mM Glycine, pH 1.7. A Biacore 3000 instrument was used according to the manufacturer's protocols.

Assay [2] deals with T3, CTLA4-Fc (Orencia, Bristol-Mayers Squibb) (human, UniProt P16410 38-152).
T3 construct: Commercial drug Orencia; Biotinylated in the dual ELISA; also called soluble CTLA-4; human CTLA-4; not shown: Fc part of Orencia
T3 sequence (P16410 38-152 limits assumed): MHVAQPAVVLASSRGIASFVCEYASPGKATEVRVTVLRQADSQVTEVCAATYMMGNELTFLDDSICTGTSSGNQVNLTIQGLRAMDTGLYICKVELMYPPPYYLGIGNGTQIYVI
In words: dual ELISA: CD40-Fc coated, antibody at 0.2 ug/ml captured, biotinylated CTLA4-Fc titrated, streptavidin-HRP. How it is done:
In short, 96-well flat bottom plate high binding plates (Greiner #655074) were coated with CD40-Fc (Ancell # 504-820) by incubating overnight at 4° C. The plates were washed (Wash buffer: PBS+0.05% Tween 20 (PBST) Medicago #09-9410-100) and then blocked in PBST+3% BSA (Merck, #1.12018.0100). […] The samples were incubated for 1 h at room temperature and then washed.

The target of assay [3] is T4, CD28-Fc (provided by Simon Davis, Oxford University) (human, UniProt P10747 19-152, limits assumed).
T4 construct: Gift reagent; not shown: Fc part
As to the kind of experiment: binding ELISA, coated CD28-Fc. How it is done:
(§1) The plates were washed (Wash buffer: PBS+0.05% Tween 20 (PBST) Medicago #09-9410-100) and then blocked in PBST+3% BSA (Merck, #1.12018.0100). The plates were washed again and sample or controls (serially diluted 1/3 from […]) were added to the wells. The samples were incubated for 1 h at room temperature and then washed. Detection antibody, goat-anti-human IgG Fγy-HRP (Jackson, #109-035-098) was added and the plates were subsequently developed using SuperSignal Pico Chemiluminescent substrate (Thermo #37069) and detected with an Envision reader (Perkin Elmer).

Assay [4] concerns the target T1, human CTLA4-Fc (Fitzgerald #30R-CD152). As to the kind of experiment: binding ELISA, coated CTLA4-Fc; high end tied to 1040 by Table 7. As to the method:
as §1

For assay [5] the target is unchanged. In words: inhibition ELISA; best molecule is 1040 by Table 8. How it is done: (§2) The plates were washed (Wash buffer: PBS+0.05% Tween 20 (PBST) Medicago #09-9410-100) and then blocked in PBST+3% BSA (Merck, #1.12018.0100). The sample (CD86 mutant or wild type protein; serially diluted 1/4 from 30000 to 0.3 ng/ml) was incubated with biotinylated-CTLA4 (Fitzgerald #30R-CD152) in room temperature 1 h, the mixture was then added to the blocked wells in the ELISA plate. Detection was performed with Streptavidin-HRP (Pierce #21126) and the plates were subsequently developed using SuperSignal Pico Chemiluminescent substrate (Thermo #37069) and detected with Envision reader (Perkin Elmer).

Assay [6] shares this target. In words: inhibition ELISA: sample titrated, pre-incubated with biotinylated CTLA4-Fc, mixture added to coated wildtype CD86-Fc (competitor), streptavidin-HRP [lower panel]. As to the method: as §2
The target is the same in assay [7]. In words: binding ELISA, CTLA4-Fc coated, sample titrated, anti-human IgG Fc-HRP, chemiluminescence, data normalised to % [upper panel]. How it is done: as §1
Assay [8] has the same target. As to the kind of experiment: binding ELISA, coated CTLA4-Fc; low end tied to 1042 by Table 7. As to the method: as §1
For assay [9] the target is unchanged. In words: Biacore SPR, CD28/CTLA-4 Kd ratio against that of wild type. How it is done:
The CD86 mutant molecules and controls (serially diluted 1/2 100-1.5 nM) were analyzed for binding in HBs-P (GE, BR-1003-69) at a flow rate […]. The association was followed for 3 minutes and the dissociation for 10 minutes. Regeneration was performed twice using 5 mM NaOH for 30 seconds. The kinetic parameters and the affinity constants were calculated using BlAevaluation 4.1 software.

Assay [10] has the same target. As to the kind of experiment: binding ELISA, CD28/CTLA-4 EC50 ratio against that of wild type. As to the method:
The plates were washed (Wash buffer: PBS+0.05% Tween 20 (PBST) Medicago #09-9410-100) and then blocked in PBST+3% BSA (Merck, #1.12018.0100).
The plates were washed again and sample or controls (serially diluted 1/5 from 200-0.001 μg/ml) were added to the wells. The samples were incubated for 1 h at room temperature and then washed. Detection antibody, goat-anti-human IgG Fcγ-HRP (Jackson, #109-035-098) was added and the plates were subsequently developed using SuperSignal Pico Chemiluminescent substrate (Thermo #37069) and detected with an Envision reader

T1 sequence (P16410 38-152 limits assumed): as above

B1: Antibody A2-54 (monospecific anti-CD40) (antibody, human IgG1, kappa, V domains shown)
VH: EVQLLESGGGLVQPGGSLRLSCAASGFTFSDYYMSWVRQAPGKGLEWISSISSNGIYIYYADSLKGRFTISRDNSKNTLYLQMNSLRAEDTAVYYCARAPVDYSNPSGMDVWGQGTLVTVSS
VL: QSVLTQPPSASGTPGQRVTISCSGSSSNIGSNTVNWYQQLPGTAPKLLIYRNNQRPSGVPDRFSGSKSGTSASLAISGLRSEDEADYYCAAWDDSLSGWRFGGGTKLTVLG
notes: VH-gamma1 / VL-kappa; also called control Ab
In the case of B1, the binding result was “no binding (tested: log 1.2 µg/mL (about 16 µg/mL))” in [1], “binds” in the assay with CD40-Fc (R&D #1493-CD) and “no binding (tested: 20 µg/mL of hCTLA-4-bio)” in assay [2].

B2: CD86 mutant clone 1040, gamma2/gamma4 fusion (Fc fusion)
chain: APLKIQAYFNETADLPCQFANSQNLSLSELVVFWQDQENLVLNEVYLGKERFDSVDSKYMGRTSFDSDSWTLRLHNLQIKDKGRYQCIIHHKKPTGMINIHQMNSELSVLA
notes: Expressed as gamma2/gamma4 fusion, protein A purified; not shown: gamma2/gamma4 Fc
Regarding B2, in assay [3], the binding result is reported as “no binding”. For the same molecule, in assay [4], the “fold improvement of EC50 over wild type” value was 2 to 67 fold. Further, in [5], the “fold improvement of IC50 over wild type” value is > 100 fold. In addition, in assay [6], the “IC50 (read off the curve)” value is ~0.05 µg/mL. Besides, the 50% effective concentration (EC50 (read off the curve)) in assay [7] is ~0.009 µg/mL.

B3: CD86 mutant clone 1042, gamma2/gamma4 fusion (Fc fusion)
chain: APLKIQAYFNETADLPCQFANSQNLSLSELVVFWQDQENLVLNEVYLGKEIFDSVSSKYMGRTSFDSDSWTLRLHNLQIKDKGIYQCIIHHKKPSGMVKIHQMDSELSVLA
notes: as for B2
As for B3, the binding result in assay [3] is recorded as “no binding”. Moreover, in [8], the “fold improvement of EC50 over wild type” value is 2 to 67 fold. Besides, the “EC50 (read off the curve)” value in assay [7] is ~0.3 µg/mL.

B4: CD86 mutant clone 904, gamma2/gamma4 Fc fusion (Fc fusion)
chain: LKIQAYFNETADLPCQFANSQNQSLSELIVFWQDQENLVLNEVYLGKERFDAVDSKYMGRTSFDSDSWTLRLHNLQIKDKGIYQCIIHHKKPSGMVKIHQMDSELSVLA
notes: Fusion to gamma2/gamma4 Fc, HEK293; not shown: gamma2/gamma4 Fc
With B4, the “fold of Kd binding ratio over wild type protein CD86” value in assay [9] was > 4 fold.

B5: CD86 mutant clone 907, gamma2/gamma4 Fc fusion (Fc fusion)
chain: LKIQAYFNETADLPCQFANSQNQSLSELVVFWQDQENLVLNEVYLGKEKFDSVHSKYMGRTSFDSDSWTLRLHNLQIKDKGLYQCIIHHKKPTGMIKIHEMNSELSVLA
notes: as for B4
As for B5, in [10], the “fold of EC50 binding ratio over wild-type protein CD86” value was ~10 fold.

Values taken from patent US20170304437A1 (ALLIGATOR BIOSCIENCE, published 2017).
